Details: Carica papaya, Thermal, DSC, glycine-HCl 5 mM, reversible: yes

Sequence of Chymopapain wild type, P14080 (P14080 whole entry): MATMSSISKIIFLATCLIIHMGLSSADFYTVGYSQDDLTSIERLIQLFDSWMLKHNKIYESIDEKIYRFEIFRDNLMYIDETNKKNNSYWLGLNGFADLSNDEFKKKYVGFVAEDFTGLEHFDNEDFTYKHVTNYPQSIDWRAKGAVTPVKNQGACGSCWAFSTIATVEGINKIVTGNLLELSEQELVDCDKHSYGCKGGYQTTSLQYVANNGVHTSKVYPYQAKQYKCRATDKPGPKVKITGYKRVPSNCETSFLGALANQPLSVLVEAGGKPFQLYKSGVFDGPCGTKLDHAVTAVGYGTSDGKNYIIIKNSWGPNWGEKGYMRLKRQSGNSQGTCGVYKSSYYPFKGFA

Chymopapain wild type, P14080
Tm (pH 1.9): 69.3 °C | unfolding enthalpy (calorimetric) (pH 1.9): 147 kcal/mol | unfolding enthalpy (van 't Hoff) (pH 1.9): 88.3 kcal/mol | Tm (pH 2.4): 71.6 °C | unfolding enthalpy (calorimetric) (pH 2.4): 154 kcal/mol | unfolding enthalpy (van 't Hoff) (pH 2.4): 87.9 kcal/mol | Tm (pH 2.9): 78.3 °C | unfolding enthalpy (calorimetric) (pH 2.9): 175 kcal/mol | unfolding enthalpy (van 't Hoff) (pH 2.9): 95.2 kcal/mol | Tm (pH 3.5): 85.8 °C | unfolding enthalpy (calorimetric) (pH 3.5): 232 kcal/mol | unfolding enthalpy (van 't Hoff) (pH 3.5): 125 kcal/mol

From FireProtDB (doi:10.1111/j.1432-1033.1993.tb17904.x)
